From article PMC5490006 (Nature Communications, 2017) come the findings set out here.

Common to all, as to conditions: both partners purified
The target of one test is T1, Mcm2 (budding yeast, UniProt P29469 1-868).
T1 construct: Mcm2, subunit of the budding yeast MCM (Mcm2-7), expressed as an individual subunit; source: E. coli, purified
T1 sequence (looked up): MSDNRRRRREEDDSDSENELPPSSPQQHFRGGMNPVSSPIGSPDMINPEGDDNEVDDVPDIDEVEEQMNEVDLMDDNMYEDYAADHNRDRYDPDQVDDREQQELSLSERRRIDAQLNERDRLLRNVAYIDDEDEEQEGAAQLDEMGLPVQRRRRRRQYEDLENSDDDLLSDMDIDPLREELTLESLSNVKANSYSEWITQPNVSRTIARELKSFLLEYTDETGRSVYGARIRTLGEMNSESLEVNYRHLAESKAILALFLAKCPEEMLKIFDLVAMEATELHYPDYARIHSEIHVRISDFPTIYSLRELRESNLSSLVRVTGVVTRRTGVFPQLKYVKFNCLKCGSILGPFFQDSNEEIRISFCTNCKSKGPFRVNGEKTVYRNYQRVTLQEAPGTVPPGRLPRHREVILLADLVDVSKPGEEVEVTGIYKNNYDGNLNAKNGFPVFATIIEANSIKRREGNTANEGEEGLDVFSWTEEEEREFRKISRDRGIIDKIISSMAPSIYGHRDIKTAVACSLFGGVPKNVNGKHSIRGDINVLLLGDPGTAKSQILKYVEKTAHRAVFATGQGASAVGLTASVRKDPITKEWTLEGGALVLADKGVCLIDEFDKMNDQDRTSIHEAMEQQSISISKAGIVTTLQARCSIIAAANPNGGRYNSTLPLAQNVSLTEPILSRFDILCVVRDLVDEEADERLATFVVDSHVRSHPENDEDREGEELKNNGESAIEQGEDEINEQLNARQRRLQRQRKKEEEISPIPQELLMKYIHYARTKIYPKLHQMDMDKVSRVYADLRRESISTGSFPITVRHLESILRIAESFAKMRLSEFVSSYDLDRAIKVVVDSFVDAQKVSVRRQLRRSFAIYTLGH
The experiment in a line: pull-down; Cdt1-His-SUMO fragments held on Ni-NTA magnetic beads, Mcm2 or Mcm6 in solution; 10 μg of each protein, buffer B (25 mM Hepes-KOH pH 7.6, 0.02% NP-40, 10% glycerol, 0.1 M K glutamate), 60 min at 4 °C; Coomassie.

Test [1] addresses T2, Mcm6 (budding yeast, UniProt P53091 1-1017).
T2 construct: Mcm6, subunit of the budding yeast MCM (Mcm2-7), expressed as an individual subunit; called Mcm6 fl and the full-length protein; also called Mcm6 fl; full-length Mcm6; source: E. coli, purified
Described as above.

In test [2] the target is T2, Mcm6. The experiment in a line: co-IP; purified Mcm2-7 subunits (0.5 μM) individually incubated with purified Cdt1 (0.5 μM) or buffer, room temperature 60 min, buffer A/2 mM 2-mercaptoethanol; immunoprecipitation with polyclonal anti-Cdt1 antibody on protein A sepharose, 2 h at 4 °C; SDS-PAGE, Coomassie.
The target in test [3] is T3, Mcm6 tagged with GFP-FLAG, within an MCM-GFP,FLAG–Cdt1 complex (budding yeast, UniProt P53091 1-1017).
T3 construct: Mcm6, budding yeast MCM subunit; also called Mcm6-GFP-FLAG; source: purified MCM-GFP,FLAG-Cdt1 complex; not shown: GFP, C-terminal, kept; FLAG, C-terminal, kept
The experiment in a line: cross-linking; MCM-GFP,FLAG-Cdt1 complexes (20 μg) crosslinked with 25 μM BS3, 30 min room temperature, buffer B; denatured with SDS; immunoprecipitation with anti-FLAG beads under denaturing conditions; western blot against Cdt1.

For test [4], the target named is T4, Mcm6 within purified Cdt1–MCM complexes (budding yeast, UniProt P53091 1-1017).
T4 construct: Mcm6, yeast MCM subunit, as part of the Cdt1-MCM complex; source: purified Cdt1-MCM complex
The experiment in a line: negative-stain electron microscopy; single-particle EM of the Cdt1-MCM complex, apo and with ATPγS, 2% uranyl formate; 3D reconstruction (20.4 and 18.0 Å) with docking of MCM atomic structures and of the Cdt1 NM crystal structure.

A further test deals with T5, Mcm3 (budding yeast, UniProt P24279 1-971).
T5 construct: Mcm3, subunit of the budding yeast MCM (Mcm2-7), expressed as an individual subunit; source: E. coli, purified
In words: SEC; 10 μg of each Mcm subunit combined as pairs 3/7, 4/7 and 2/6, dialysed against buffer A, fractionated over Superdex 200 PC 3.2/30 in buffer A; fractions with the dimers pooled.

For another test, the target named is T6, Mcm4 (budding yeast, UniProt P30665 1-933).
T6 construct: Mcm4, subunit of the budding yeast MCM (Mcm2-7), expressed as an individual subunit; source: E. coli, purified
T6 sequence (looked up): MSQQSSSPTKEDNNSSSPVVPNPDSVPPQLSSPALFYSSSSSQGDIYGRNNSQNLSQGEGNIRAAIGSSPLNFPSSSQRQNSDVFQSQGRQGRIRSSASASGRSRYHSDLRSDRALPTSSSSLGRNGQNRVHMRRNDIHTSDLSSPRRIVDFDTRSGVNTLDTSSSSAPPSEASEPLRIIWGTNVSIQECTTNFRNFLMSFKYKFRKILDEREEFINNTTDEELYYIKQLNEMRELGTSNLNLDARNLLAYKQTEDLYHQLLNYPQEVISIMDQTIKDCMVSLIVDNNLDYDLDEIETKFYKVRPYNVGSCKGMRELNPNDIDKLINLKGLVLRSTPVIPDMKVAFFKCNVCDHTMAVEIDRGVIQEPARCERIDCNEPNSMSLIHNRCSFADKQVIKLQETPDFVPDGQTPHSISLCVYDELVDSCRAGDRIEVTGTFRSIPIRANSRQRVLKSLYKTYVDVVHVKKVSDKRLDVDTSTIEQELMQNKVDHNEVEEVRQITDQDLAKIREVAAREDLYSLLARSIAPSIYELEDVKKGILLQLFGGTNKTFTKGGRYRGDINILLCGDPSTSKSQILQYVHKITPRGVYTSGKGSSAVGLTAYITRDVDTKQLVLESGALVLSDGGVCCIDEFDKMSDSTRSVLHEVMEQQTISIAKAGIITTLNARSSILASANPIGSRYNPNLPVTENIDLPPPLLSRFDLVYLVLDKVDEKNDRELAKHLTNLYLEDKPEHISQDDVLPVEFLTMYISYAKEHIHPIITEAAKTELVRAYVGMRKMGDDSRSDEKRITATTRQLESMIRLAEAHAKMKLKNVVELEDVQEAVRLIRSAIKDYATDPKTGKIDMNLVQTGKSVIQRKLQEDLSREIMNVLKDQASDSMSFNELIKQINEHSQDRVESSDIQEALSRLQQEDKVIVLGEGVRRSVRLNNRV
The description is as above.

T2 sequence (P53091 whole entry): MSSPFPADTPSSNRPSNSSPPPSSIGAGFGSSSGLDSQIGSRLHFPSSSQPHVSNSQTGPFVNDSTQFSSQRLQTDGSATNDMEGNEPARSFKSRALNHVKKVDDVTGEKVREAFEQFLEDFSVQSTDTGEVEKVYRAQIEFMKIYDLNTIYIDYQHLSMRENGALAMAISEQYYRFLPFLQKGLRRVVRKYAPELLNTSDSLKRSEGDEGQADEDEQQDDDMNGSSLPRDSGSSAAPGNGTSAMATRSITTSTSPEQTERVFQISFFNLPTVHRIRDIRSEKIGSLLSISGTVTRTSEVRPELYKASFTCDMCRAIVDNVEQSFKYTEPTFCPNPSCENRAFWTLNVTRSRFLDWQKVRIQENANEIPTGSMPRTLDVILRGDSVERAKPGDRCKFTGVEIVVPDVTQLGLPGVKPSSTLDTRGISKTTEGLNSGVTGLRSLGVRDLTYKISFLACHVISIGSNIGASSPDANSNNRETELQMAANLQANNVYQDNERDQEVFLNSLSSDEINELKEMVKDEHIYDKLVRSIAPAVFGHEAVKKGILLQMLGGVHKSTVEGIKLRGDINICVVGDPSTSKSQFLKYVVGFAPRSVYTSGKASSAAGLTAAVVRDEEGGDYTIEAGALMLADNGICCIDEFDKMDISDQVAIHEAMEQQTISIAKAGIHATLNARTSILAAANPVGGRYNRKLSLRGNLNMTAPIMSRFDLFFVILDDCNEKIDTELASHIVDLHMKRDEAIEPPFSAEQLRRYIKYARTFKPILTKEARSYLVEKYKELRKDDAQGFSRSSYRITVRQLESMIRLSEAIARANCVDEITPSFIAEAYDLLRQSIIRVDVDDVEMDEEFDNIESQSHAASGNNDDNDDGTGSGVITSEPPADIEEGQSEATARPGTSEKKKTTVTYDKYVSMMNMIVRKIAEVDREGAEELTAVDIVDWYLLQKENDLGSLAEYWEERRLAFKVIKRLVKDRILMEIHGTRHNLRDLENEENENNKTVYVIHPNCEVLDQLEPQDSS
T5 sequence (P24279 whole entry): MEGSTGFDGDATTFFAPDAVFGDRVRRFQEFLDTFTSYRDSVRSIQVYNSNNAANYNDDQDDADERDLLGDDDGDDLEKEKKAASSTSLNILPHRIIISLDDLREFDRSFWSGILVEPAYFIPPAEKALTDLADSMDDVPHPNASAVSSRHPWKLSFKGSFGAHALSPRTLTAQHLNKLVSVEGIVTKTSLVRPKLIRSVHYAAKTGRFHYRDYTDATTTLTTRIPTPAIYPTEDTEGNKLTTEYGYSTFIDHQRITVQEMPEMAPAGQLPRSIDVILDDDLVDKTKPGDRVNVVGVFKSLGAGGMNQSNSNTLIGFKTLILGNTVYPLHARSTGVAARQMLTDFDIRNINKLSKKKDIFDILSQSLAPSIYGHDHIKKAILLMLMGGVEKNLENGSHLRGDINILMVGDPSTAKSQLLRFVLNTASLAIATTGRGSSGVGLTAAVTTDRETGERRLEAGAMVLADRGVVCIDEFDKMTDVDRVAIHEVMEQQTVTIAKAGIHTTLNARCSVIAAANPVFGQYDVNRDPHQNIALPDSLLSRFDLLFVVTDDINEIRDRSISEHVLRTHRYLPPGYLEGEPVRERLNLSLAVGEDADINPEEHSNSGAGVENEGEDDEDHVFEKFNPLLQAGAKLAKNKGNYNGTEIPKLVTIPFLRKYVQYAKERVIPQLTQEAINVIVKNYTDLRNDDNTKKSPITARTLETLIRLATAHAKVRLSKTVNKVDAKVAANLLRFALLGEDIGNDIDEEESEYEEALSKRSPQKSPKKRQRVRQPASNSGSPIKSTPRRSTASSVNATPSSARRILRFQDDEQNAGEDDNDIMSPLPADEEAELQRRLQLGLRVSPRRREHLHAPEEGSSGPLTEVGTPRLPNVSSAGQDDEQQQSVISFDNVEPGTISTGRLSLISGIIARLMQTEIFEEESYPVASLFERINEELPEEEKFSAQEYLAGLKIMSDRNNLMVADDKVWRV
T4 sequence (P53091 whole entry, one chain of several): as the sequence (P53091 whole entry) above
T3 sequence (P53091 whole entry, one chain of several): as the sequence (P53091 whole entry) above

B1: Cdt1 fragment 271–496 fused to His-SUMO (domain or fragment, S. cerevisiae, UniProt P47112 271-496, looked up)
chain: SSKGEGTIANHLLEQQIKAFPKVAQQYYPRELSILRLQDAMKFVKELFTVCETVLSLNALSRSTGVPPELHVLLPQISSMMKRKIVQDDILKLLTIWSDAYVVELNSRGELTMNLPKRDNLTTLTNKSRTLAFVERAESWYQQVIASKDEIMTDVPAFKINKRRSSSNSKTVLSSKVQTKSSNANALNNSRYLANSKENFMYKEKMPDSQANLMDRLRERERRSAA
notes: source: His-SUMO fusion
For B1, the binding result in the test with Mcm2 and with Mcm6 [1] was “binds” in each case.

B2: Cdt1-MC fused to His-SUMO (domain or fragment, S. cerevisiae, UniProt P47112 272-604, looked up)
chain: SKGEGTIANHLLEQQIKAFPKVAQQYYPRELSILRLQDAMKFVKELFTVCETVLSLNALSRSTGVPPELHVLLPQISSMMKRKIVQDDILKLLTIWSDAYVVELNSRGELTMNLPKRDNLTTLTNKSRTLAFVERAESWYQQVIASKDEIMTDVPAFKINKRRSSSNSKTVLSSKVQTKSSNANALNNSRYLANSKENFMYKEKMPDSQANLMDRLRERERRSAALLSQRQKRYQQFLAMKMTQVFDILFSLTRGQPYTETYLSSLIVDSLQDSNNPIGTKEASEILAGLQGILPMDISVHQVDGGLKVYRWNSLDKNRFSKLLQIHKSKQQD
notes: source: His-SUMO fusion
Consider B2, for which the binding result with Mcm2 and in the test with Mcm6 [1] was “binds” each time.

B3: Cdt1 (natural protein, S. cerevisiae, UniProt P47112 1-604, looked up)
chain: MSGTANSRRKEVLRVPVIDLNRVSDEEQLLPVVRAILLQHDTFLLKNYANKAVLDALLAGLTTKDLPDTSQGFDANFTGTLPLEDDVWLEQYIFDTDPQLRFDRKCRNESLCSIYSRLFKLGLFFAQLCVKSVVSSAELQDCISTSHYATKLTRYFNDNGSTHDGADAGATVLPTGDDFQYLFERDYVTFLPTGVLTIFPCAKAIRYKPSTMATTDNSWVSIDEPDCLLFHTGTLLARWSQGMHTTSPLQIDPRANIVSLTIWPPLTTPISSKGEGTIANHLLEQQIKAFPKVAQQYYPRELSILRLQDAMKFVKELFTVCETVLSLNALSRSTGVPPELHVLLPQISSMMKRKIVQDDILKLLTIWSDAYVVELNSRGELTMNLPKRDNLTTLTNKSRTLAFVERAESWYQQVIASKDEIMTDVPAFKINKRRSSSNSKTVLSSKVQTKSSNANALNNSRYLANSKENFMYKEKMPDSQANLMDRLRERERRSAALLSQRQKRYQQFLAMKMTQVFDILFSLTRGQPYTETYLSSLIVDSLQDSNNPIGTKEASEILAGLQGILPMDISVHQVDGGLKVYRWNSLDKNRFSKLLQIHKSKQQD
notes: Cdt1, S. cerevisiae; also called Cdt1 WT; wild-type Cdt1; source: recombinant, purified
On to B3, for which the binding result with Mcm6 [2] is “binds”.

B4: Cdt1 within purified Cdt1–MCM complexes (natural protein, S. cerevisiae, UniProt P47112 1-604, looked up)
chain: B3 chain
notes: also called Cdt1 (in MCM-GFP,FLAG–Cdt1 complexes and in the Cdt1–MCM complex used for electron microscopy); source: purified Cdt1-MCM complex
As to B4, the binding result in test [3] and in test [4] was “binds” throughout.

B5: Mcm7 (natural protein, budding yeast, UniProt P38132 1-845, looked up)
chain: MSAALPSIQLPVDYNNLFNEITDFLVTFKQDTLSSDATRNENEDENLDAENIEQHLLEKGPKYMAMLQKVANRELNSVIIDLDDILQYQNEKFLQGTQADDLVSAIQQNANHFTELFCRAIDNNMPLPTKEIDYKDDVLDVILNQRRLRNERMLSDRTNEIRSENLMDTTMDPPSSMNDALREVVEDETELFPPNLTRRYFLYFKPLSQNCARRYRKKAISSKPLSVRQIKGDFLGQLITVRGIITRVSDVKPAVEVIAYTCDQCGYEVFQEVNSRTFTPLSECTSEECSQNQTKGQLFMSTRASKFSAFQECKIQELSQQVPVGHIPRSLNIHVNGTLVRSLSPGDIVDVTGIFLPAPYTGFKALKAGLLTETYLEAQFVRQHKKKFASFSLTSDVEERVMELITSGDVYNRLAKSIAPEIYGNLDVKKALLLLLVGGVDKRVGDGMKIRGDINVCLMGDPGVAKSQLLKAICKISPRGVYTTGKGSSGVGLTAAVMKDPVTDEMILEGGALVLADNGICCIDEFDKMDESDRTAIHEVMEQQTISISKAGINTTLNARTSILAAANPLYGRYNPRLSPLDNINLPAALLSRFDILFLMLDIPSRDDDEKLAEHVTYVHMHNKQPDLDFTPVEPSKMREYIAYAKTKRPVMSEAVNDYVVQAYIRLRQDSKREMDSKFSFGQATPRTLLGIIRLSQALAKLRLADMVDIDDVEEALRLVRVSKESLYQETNKSKEDESPTTKIFTIIKKMLQETGKNTLSYENIVKTVRLRGFTMLQLSNCIQEYSYLNVWHLINEGNTLKFVDDGTMDTDQEDSLVSTPKLAPQTTASANVSAQDSDIDLQDA
notes: Mcm7, subunit of the budding yeast MCM (Mcm2-7), expressed as an individual subunit; source: E. coli, purified
For B5, the binding result with Mcm3 and with Mcm4 was “binds” each time.

B6: Cdt1 fragment 495–604 fused to His-SUMO (domain or fragment, S. cerevisiae, UniProt P47112 495-604, looked up)
chain: AALLSQRQKRYQQFLAMKMTQVFDILFSLTRGQPYTETYLSSLIVDSLQDSNNPIGTKEASEILAGLQGILPMDISVHQVDGGLKVYRWNSLDKNRFSKLLQIHKSKQQD
notes: assigned by the order of description; The crystallised protein had the tag removed; also called CTD; source: His-SUMO fusion; E. coli is told for the crystallised fragment of the same limits
Take B6: the binding result with Mcm2 and with Mcm6 [1] was “binds” each time.
